One assay has as its target CCR9 F299A (human). As to the kind of experiment: flow cytometry on cells; TAMRA-labeled chemokine (four concentrations, highest 300 nM used to compare mutants) incubated 1 h with HEK293T cells expressing WT or mutant CCR9 in FACS buffer (1x PBS, 1 mM EDTA, 1% BSA); median fluorescence; nonspecific binding on parental HEK293T cells; binding ratios mutant:WT.
Another assay deals with CCR9 Y126A (human). The assay is described as above.
For assay [1], the target named is T1, TAMRA-labeled CCL25 (CCL25(1-73), norleucine 64, C-terminal azidolysine coupled to TAMRA-PEG4-DBCO).
T1 chain: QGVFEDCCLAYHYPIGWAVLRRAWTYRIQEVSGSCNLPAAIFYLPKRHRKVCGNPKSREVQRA
The experiment in a line: flow cytometry on cells. Particulars: chain shown with the change; 300 nM TAMRA-CCL25; HEK293T cells; read off a plot. (A flow cytometer gives signals particle by particle.)

Results on seven molecules are retold here after publication PMC12361432.

For the molecule “TAMRA-labeled CCL25 (CCL25(1-73), norleucine 64, C-terminal azidolysine coupled to TAMRA-PEG4-DBCO) (ligand)”, the CCL25-induced Ca^2+ response in HEK293T cells expressing the CCR9 mutant, percent of WT output (CCL25 without dye) with CCR9 D296A (human) stood at 15%; in the assay with CCR9 S292A (human), 48%. The figures for the fold change in binding against WT CCR9 in the assay with CCR9 F299A (human) and in the assay with CCR9 Y126A (human) were 2.2 fold and 2.5 fold, respectively. The CCL25-induced Ca^2+ mobilization in HEK293T cells expressing the CCR9 mutant, area under the concentration-response curve against WT (CCL25 without dye) in the assay with CCR9 Y202A (human), with CCR9 K211A (human), with CCR9 K40A (human) and in the assay with CCR9 R44A (human) was less than 15% in each case.

B1: C-C chemokine receptor 9 (CCR9), wild type Y202A (protein)
chain: MTPTDFTSPIPNMADDYGSESTSSMEDYVNFNFTDFYCEKNNVRQFASHFLPPLYWLVFIVGALGNSLVILVYWYCTRVKTMTDMFLLNLAIADLLFLVTLPFWAIAAADQWKFQTFMCKVVNSMYKMNFYSCVLLIMCISVDRYIAIAQAMRAHTWREKRLLYSKMVCFTIWVLAAALCIPEILYSQIKEESGIAICTMVAPSDESTKLKSAVLTLKVILGFFLPFVVMACCYTIIIHTLIQAKKSSKHKALKVTITVLTVFVLSQFPYNCILLVQTIDAYAMFISNCAVSTNIDICFQVTQTIAFFHSCLNPVLYVFVGERFRRDLVKTLKNLGCISQAQWVSFTRREGSLKLSSMLLETTSGALSL
For the molecule B1, in [1], the ratio to parent is 0.73.

B2: C-C chemokine receptor 9 (CCR9), wild type D296A (protein)
chain: MTPTDFTSPIPNMADDYGSESTSSMEDYVNFNFTDFYCEKNNVRQFASHFLPPLYWLVFIVGALGNSLVILVYWYCTRVKTMTDMFLLNLAIADLLFLVTLPFWAIAAADQWKFQTFMCKVVNSMYKMNFYSCVLLIMCISVDRYIAIAQAMRAHTWREKRLLYSKMVCFTIWVLAAALCIPEILYSQIKEESGIAICTMVYPSDESTKLKSAVLTLKVILGFFLPFVVMACCYTIIIHTLIQAKKSSKHKALKVTITVLTVFVLSQFPYNCILLVQTIDAYAMFISNCAVSTNIAICFQVTQTIAFFHSCLNPVLYVFVGERFRRDLVKTLKNLGCISQAQWVSFTRREGSLKLSSMLLETTSGALSL
Take B2: the ratio to parent in assay [1] amounted to 0.81.

B3: C-C chemokine receptor 9 (CCR9), wild type S292A (protein)
chain: MTPTDFTSPIPNMADDYGSESTSSMEDYVNFNFTDFYCEKNNVRQFASHFLPPLYWLVFIVGALGNSLVILVYWYCTRVKTMTDMFLLNLAIADLLFLVTLPFWAIAAADQWKFQTFMCKVVNSMYKMNFYSCVLLIMCISVDRYIAIAQAMRAHTWREKRLLYSKMVCFTIWVLAAALCIPEILYSQIKEESGIAICTMVYPSDESTKLKSAVLTLKVILGFFLPFVVMACCYTIIIHTLIQAKKSSKHKALKVTITVLTVFVLSQFPYNCILLVQTIDAYAMFISNCAVATNIDICFQVTQTIAFFHSCLNPVLYVFVGERFRRDLVKTLKNLGCISQAQWVSFTRREGSLKLSSMLLETTSGALSL
Turning to B3, in assay [1], the ratio to parent was 0.66.

B4: C-C chemokine receptor 9 (CCR9), wild type R44A (protein)
chain: MTPTDFTSPIPNMADDYGSESTSSMEDYVNFNFTDFYCEKNNVAQFASHFLPPLYWLVFIVGALGNSLVILVYWYCTRVKTMTDMFLLNLAIADLLFLVTLPFWAIAAADQWKFQTFMCKVVNSMYKMNFYSCVLLIMCISVDRYIAIAQAMRAHTWREKRLLYSKMVCFTIWVLAAALCIPEILYSQIKEESGIAICTMVYPSDESTKLKSAVLTLKVILGFFLPFVVMACCYTIIIHTLIQAKKSSKHKALKVTITVLTVFVLSQFPYNCILLVQTIDAYAMFISNCAVSTNIDICFQVTQTIAFFHSCLNPVLYVFVGERFRRDLVKTLKNLGCISQAQWVSFTRREGSLKLSSMLLETTSGALSL
For the molecule B4, the ratio to parent in assay [1] was 0.61.

B5: C-C chemokine receptor 9 (CCR9), wild type K211A (protein)
chain: MTPTDFTSPIPNMADDYGSESTSSMEDYVNFNFTDFYCEKNNVRQFASHFLPPLYWLVFIVGALGNSLVILVYWYCTRVKTMTDMFLLNLAIADLLFLVTLPFWAIAAADQWKFQTFMCKVVNSMYKMNFYSCVLLIMCISVDRYIAIAQAMRAHTWREKRLLYSKMVCFTIWVLAAALCIPEILYSQIKEESGIAICTMVYPSDESTKLASAVLTLKVILGFFLPFVVMACCYTIIIHTLIQAKKSSKHKALKVTITVLTVFVLSQFPYNCILLVQTIDAYAMFISNCAVSTNIDICFQVTQTIAFFHSCLNPVLYVFVGERFRRDLVKTLKNLGCISQAQWVSFTRREGSLKLSSMLLETTSGALSL
With B5, the ratio to parent in assay [1] is 1.1.

B6: C-C chemokine receptor 9 (CCR9), wild type K40A (protein)
chain: MTPTDFTSPIPNMADDYGSESTSSMEDYVNFNFTDFYCEANNVRQFASHFLPPLYWLVFIVGALGNSLVILVYWYCTRVKTMTDMFLLNLAIADLLFLVTLPFWAIAAADQWKFQTFMCKVVNSMYKMNFYSCVLLIMCISVDRYIAIAQAMRAHTWREKRLLYSKMVCFTIWVLAAALCIPEILYSQIKEESGIAICTMVYPSDESTKLKSAVLTLKVILGFFLPFVVMACCYTIIIHTLIQAKKSSKHKALKVTITVLTVFVLSQFPYNCILLVQTIDAYAMFISNCAVSTNIDICFQVTQTIAFFHSCLNPVLYVFVGERFRRDLVKTLKNLGCISQAQWVSFTRREGSLKLSSMLLETTSGALSL
As to B6, in assay [1], the ratio to parent worked out at 0.83.
